Test results as given in patent US20230145766A1.

Biological target: IL-2 receptor on the surface of human lymphocytes (T cells, NK cells, Treg cells from PBMC) (human)
Assay: cell-based or functional assay

With “human wild-type IL-2 (rhIL-2, R&D systems, Catalog No. 202-IL) (from UniProt P60568 21-153) (ligand)” the CD25-pSTAT5 EC50 (CD8+ CD25- T cells) was 0.47 nM, the EC50 of pSTAT5, CD4+CD25- T cells was 0.102 nM and the EC50 of pSTAT5, CD8+ T cells was 1.69 nM. It also gave an EC50 of pSTAT5, NK cells of 24.2 pM and an EC50 of pSTAT5, Treg cells of 0.388 pM.
